{"source": "paper PMC7041689", "key": {"YPet-XCTK2 (Xenopus)": {"molecular_target": "YPet-XCTK2 (Xenopus) (UniProt P79955)", "assay": "FRET or BRET"}, "[1]": {"molecular_target": "6His-YPet-XCTK2-Tail (Xenopus) (UniProt P79955)", "assay": "co-sedimentation"}, "CyPet-XCTK2 (Xenopus)": {"molecular_target": "CyPet-XCTK2 (Xenopus) (UniProt P79955)", "assay": "FRET or BRET"}, "microtubules": {"molecular_target": "microtubules", "assay": "co-sedimentation"}}}
{"molecule": "importin α-CyPet (natural protein)", "values": [{"measurement": "mean line scan CyPet lifetime (importin α-CyPet + Ran without YPet 1.68)", "setting": "YPet-XCTK2 (Xenopus)", "result": 1.55, "unit": "ns"}]}
{"molecule": "importin α-6His (natural protein)", "values": [{"measurement": "percent decrease of the amount of YPet-XCTK2-Tail bound to MTs (1× importin α/β)", "setting": "[1]", "result": 46, "unit": "%"}, {"measurement": "percent decrease of the amount of YPet-XCTK2-Tail bound to MTs (4× importin α/β)", "setting": "[1]", "result": 53, "unit": "%"}]}
{"molecule": "6His-importin α-YPet (natural protein)", "values": [{"measurement": "fold decrease of Kd with importin β against without importin β", "setting": "CyPet-XCTK2 (Xenopus)", "result": 5, "unit": "fold"}]}
{"molecule": "6His-YPet-XCTK2-Tail (domain or fragment) DSTDKKVQVASRLPVPPKRKYVSNDENQEQMQRKRLRSSLESELPAVRVAASIATSKPRAAPVAALPKPQVIGRQSLAVMRPKNSGPGITSTSFSGKTKVSSSVTQPAAIGAEKKKRAA", "values": [{"measurement": "fold increase of Kd with 4× importin α/β against no importin α/β", "setting": "microtubules", "result": 10, "unit": "fold"}]}
